From IntAct's records for PubMed 21057110

B1: Arf-GAP with dual PH domain-containing protein 1 (Homo sapiens), O75689 (parent)
chain: MAKERRRAVLELLQRPGNARCADCGAPDPDWASYTLGVFICLSCSGIHRNIPQVSKVKSVRLDAWEEAQVEFMASHGNDAARARFESKVPSFYYRPTPSDCQLLREQWIRAKYERQEFIYPEKQEPYSAGYREGFLWKRGRDNGQFLSRKFVLTEREGALKYFNRNDAKEPKAVMKIEHLNATFQPAKIGHPHGLQVTYLKDNSTRNIFIYHEDGKEIVDWFNALRAARFHYLQVAFPGAGDADLVPKLSRNYLKEGYMEKTGPKQTEGFRKRWFTMDDRRLMYFKDPLDAFARGEVFIGSKESGYTVLHGFPPSTQGHHWPHGITIVTPDRKFLFACETESDQREWVAAFQKAVDRPMLPQEYAVEAHFKHKP

Variants of: B1
Details: with ki13b_human KIF13B

Row | Variant | effect of a mutation on the interaction
1 | MAKERRRAVLELLQRPGNARCADCGAPDPDWASYTLGVFICLSCSGIHRNIPQVSKVKSVRLDAWEEAQVEFMASHGNDAARARFESKVPSFYYRPTPSDCQLLREQWIRAKYERQEFIYPEKQEPYSAGYREGFLWKRGRDNGQFLSRKFVLTEREGALKYFNRNDAKEPKAVMKIEHLNATFQPAKIGHPHGLQVTYLKDNSTRNIFIGHEDGKEIVDWFNALRAARFHYLQVAFPGAGDADLVPKLSRNYLKEGYMEKTGPKQTEGFRKRWFTMDDRRLMYFKDPLDAFARGEVFIGSKESGYTVLHGFPPSTQGHHWPHGITIVTPDRKFLFACETESDQREWVAAFQKAVDRPMLPQEYAVEAHFKHKP [Y211G] | disrupting interaction strength
2 | MAKERRRAVLELLQRPGNARCADCGAPDPDWASYTLGVFICLSCSGIHRNIPQVSKVKSVRLDAWEEAQVEFMASHGNDAARARFESKVPSFYYRPTPSDCQLLREQWIRAKYERQEFIYPEKQEPYSAGYREGFLWKRGRDNGQFLSRKFVLTEREGALKYFNRNDAKEPKAVMKIEHLNATFQPAKIGHPHGLQVTYLKDNSTRNIFIRHEDGKEIVDWFNALRAARFHYLQVAFPGAGDADLVPKLSRNYLKEGYMEKTGPKQTEGFRKRWFTMDDRRLMYFKDPLDAFARGEVFIGSKESGYTVLHGFPPSTQGHHWPHGITIVTPDRKFLFACETESDQREWVAAFQKAVDRPMLPQEYAVEAHFKHKP [Y211R] | disrupting interaction strength
